The target in experiment [1] is T1, rh-PD-1 recombinant protein (human, UniProt Q15116 25-170, limits assumed).
T1 construct: also called human-derived PD-1; PD-1 protein
Kind of experiment: ELISA on PD-1 protein.

The next experiment addresses T2, Macaca fascicularis PD-1 (Macaca fascicularis).
T2 construct: also called cyno PD-1
T2 chain: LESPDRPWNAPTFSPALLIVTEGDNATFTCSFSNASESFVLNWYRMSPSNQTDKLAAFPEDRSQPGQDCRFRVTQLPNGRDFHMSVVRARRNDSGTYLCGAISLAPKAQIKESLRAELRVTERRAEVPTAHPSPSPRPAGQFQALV
Kind of experiment: ELISA, PD-1 coated at 1 ug/ml, goat anti-human HRP detection. The procedure: (§1) 1 ug /ml of human-derived PD-1, Macaca fascicularis PD-1, and mouse-derived PD-1 (Sinobiological) in the carbonate buffer solution (0.05 M PH9) were prepared and used to coat the wells of the 96-well flat-bottom plates at 4° C. overnight. The next day, solution was removed from the wells and the wells were washed three times with a washing buffer. PBS solution containing 3% BSA was added to block the wells for 20 minutes. […] The mixture was incubated at room temperature for 1 hour and then washed three times with a washing buffer. A HRP conjugated goat anti human antibody (Jackson Immunoresearch) was first diluted to 1: 10000 with the washing buffer and then added to the wells to incubate at room temperature for 1 hour. After washing three times with the washing buffer, 50 ul TMB substrate solution was added to the wells to develop the color. After 10 minutes at room temperature, the color development reaction was terminated with 25 ul 0.5M sulfuric acid solution and the absorbance was read at 450 nm.
Background: ELISA stands for enzyme-linked immunosorbent assay.

For experiment [2], the target named is T1, rh-PD-1 recombinant protein. Described as above. The procedure:
as §1

Experiment [3] has the same target. Kind of experiment: ELISA, rh-PD-1 coated at 1 ug/ml, antibody at 1 ug/ml.
Experimental: The next day, solution was removed from the wells and the wells were washed three times with a washing buffer (PBS+0.5% TWEEN). PBS solution containing 3% BSA was added to the wells to block for 20 minutes. After washing three times with the washing buffer, 100 ul of each antibody clone was added at 1 ug/ml and incubated at room temperature for 1 hour. After three washes with the washing buffer, HRP cross-linked goat anti mouse antibody (Jackson Immunoresearch) was diluted in the washing buffer 1: 0000, and added to the sample wells and incubated at room temperature for 1 hour. After three washes with the washing buffer, 50 ul TMB (tetramethyl benzidine) substrate solution was added to develop the color. The color reaction was terminated after the reaction was continued for 10 minutes at room temperature by adding 25 ul of 0.5M sulfuric acid solution to the reaction mixture. The absorbance was then measured at 450 nm.

T1 sequence (Q15116 25-170 limits assumed): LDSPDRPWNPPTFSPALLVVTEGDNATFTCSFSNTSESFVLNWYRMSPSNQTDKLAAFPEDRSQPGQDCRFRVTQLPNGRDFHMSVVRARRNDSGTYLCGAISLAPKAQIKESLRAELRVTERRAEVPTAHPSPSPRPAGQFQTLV

B1: H1L1 (antibody, V domains shown)
VH: QGQLQQSGAELVRPGASVTLTCKASGYTFTDYEMHWVKQTPIHGLEWIGVIESETGGTAYNQKFKGKAKLTADKSSSTAYMELRSLTSEDSAVYYCTREGITTVATTYYWYFDVWGTGTTVTVSS
VL: DVLMTQTPLSLPVSLGDQASISCRSSQSIVHSNGNTYLEWYLQKPGQSPELLIYKVYNRFSGVPDRFSGSGSGTDFTLKISRVEAEDLGVYYCFQGSHVPFTFGSGTKLEIK
notes: also called original antibody 1 (heavy chain 1, light chain 1)
For orientation: EC50 means the concentration giving half of the maximal effect. In the case of B1, the EC50 in experiment [1] came out at 0.338 nM.

B2: H10L10 (antibody, V domains shown)
VH: QVQLQQSGAELVRPGASVTLSCKASGYTFTDYEMHWVKQTPVHGLEWIGAIDPETGGAAYNQKFKGKAILTADKSSSTAYMELRSLTSEDSAVYYCTREGITTSVVTYYWYFDVWGTGTTVTVSS
VL: DVLMTQTPLSLPVSLGDQASISCRSSQSIVHSNGNTYLEWYLQKPGQSPKLLIYKVSNRFSGVPDRFSGSGSGTDFTLRISRVEPEDLGVYYCFQGSHVPLTFGSGTKLEIK
notes: also called original antibody 10 (heavy chain 10, light chain 10)
Regarding B2, the EC50 in experiment [1] is 0.426 nM.

B3: humanized antibody Clone 41 (antibody, V domains shown)
VH: QGQLVQSGAEVKKPGASVKVSCKASGYTFTDYEMHWVRQAPGQGLEWMGVIESETGGTAYNQKFQGRVTLTADKSSSTAYMELSSLRSEDTAVYYCTREGITTVATTYYWYFDVWGQGTLVTVSS
VL: DVVMTQSPLSLPVTLGQPASISCRSSQSIVHSNGNTYLEWYLQKPGQSPQLLIYKVSNRFSGVPDRFSGSGSGTDFTLKISRVEAEDVGVYYCFQGSHVPLTFGQGTKLEIK
notes: Humanized antibody; also called hu41
Regarding B3, the binding result (with Macaca fascicularis PD-1; in experiment [2]) was “binds” each time.

B4: H1L10 (antibody, V domains shown)
VH: QGQLQQSGAELVRPGASVTLTCKASGYTFTDYEMHWVKQTPIHGLEWIGVIESETGGTAYNQKFKGKAKLTADKSSSTAYMELRSLTSEDSAVYYCTREGITTVATTYYWYFDVWGTGTTVTVSS
VL: DVLMTQTPLSLPVSLGDQASISCRSSQSIVHSNGNTYLEWYLQKPGQSPKLLIYKVSNRFSGVPDRFSGSGSGTDFTLRISRVEPEDLGVYYCFQGSHVPLTFGSGTKLEIK
notes: also called recombinant antibody H1L10 (heavy chain 1, light chain 10)
B4: the EC50 in experiment [1] was found to be 0.27 nM.

B5: H10L1 (antibody, V domains shown)
VH: QVQLQQSGAELVRPGASVTLSCKASGYTFTDYEMHWVKQTPVHGLEWIGAIDPETGGAAYNQKFKGKAILTADKSSSTAYMELRSLTSEDSAVYYCTREGITTSVVTYYWYFDVWGTGTTVTVSS
VL: DVLMTQTPLSLPVSLGDQASISCRSSQSIVHSNGNTYLEWYLQKPGQSPELLIYKVYNRFSGVPDRFSGSGSGTDFTLKISRVEAEDLGVYYCFQGSHVPFTFGSGTKLEIK
notes: also called recombinant antibody H10L1 (heavy chain 10, light chain 1)
With B5, the EC50 in experiment [1] amounted to 0.528 nM.

B6: Clone 11 (antibody, V domains shown)
VH: QVTLKESGPGILQPSQTLSLTCSFSGFSLSTFGMGVGWIRQPSGKGLEWLAHIWWDDDKYYNPALKSRLTISKNTSKNQVFLKIANVDTEDTATYYCARIEERFRWYFDVWGTGTTVTVSS
VL: RAGWTQESALTTSPGETVTLTCRSSTGAITTSNYANWVQEKPDHLFTGLIGGTNNRAPGVPARFSGSLIGDKAALTITGAQTEDEAIYFCALWYSNHWVFGGGTKLTVL
notes: Mouse hybridoma antibody; also called antibody candidate Clone 11
With B6, the binding result in experiment [3] was “binds”.

(Values after patent US20190023782A1 (SHANGHAI JUNSHI BIOSCIENCES, published 2019).)
